{"source": "paper PMC6662825", "about": "(2019)", "biological_target": "T1, MBP-ZCCHC8^91–211-(GS)3-eYFP (human, UniProt Q6NZY4 91-211)", "T1 chain": "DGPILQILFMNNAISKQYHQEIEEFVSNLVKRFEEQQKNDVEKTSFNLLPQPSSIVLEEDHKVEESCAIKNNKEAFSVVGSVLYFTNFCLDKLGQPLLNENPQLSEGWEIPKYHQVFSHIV", "test": "MST", "data": [{"binder": "MTR4-KOW (domain or fragment) HKPKYCLPFLQPGRLVKVKNEGDDFGWGVVVNFSKKSNVKPNSGELDPLYVVEVLLRCSKESLKNSATEAAKPAKPDEKGEMQVVPVLVHLLSAISSVRLYIPKDLRPVDNRQSVLKSIQEVQKRFPDGIPLLDPIDDMGIQD", "values": [{"measurement": "Kd", "result": 0.327, "unit": "µM"}]}]}
